Data published in article PMC7713382, “Structural analysis and insight into effector binding of the niacin-responsive repressor NiaR from Bacillus halodurans” (Scientific Reports, 2020).
Each block holds one molecule with its values, some of them ahead of it.

Legend:
[1] = molecular target: T1, BhNiaR (Halalkalibacterium halodurans, UniProt Q9KDJ7); assay: X-ray crystal structure, co-crystallization, […] Å; format: binding; conditions: 2 mM niacin, 0.1 M Tris-HCl pH 8.5, 15% PEG 6000; Zn2+ in site; C-terminal 3H domain, carboxyl coordinates zinc and H-bonds His83, Tyr112 of second subunit in pocket
T1 construct: gene BH1216; full length, 179 residues; E. coli BL21(DE3) star pLysS, pET-28b(+); N-terminal His-tag removed with PreScission protease; residues 7-179 modelled
T1 sequence (Q9KDJ7 1-179): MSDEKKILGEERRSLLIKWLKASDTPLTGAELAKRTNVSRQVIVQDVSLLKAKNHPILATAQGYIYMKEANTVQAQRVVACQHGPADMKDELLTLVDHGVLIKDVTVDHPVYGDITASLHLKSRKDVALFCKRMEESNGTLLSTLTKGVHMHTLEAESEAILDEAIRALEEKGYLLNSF

[2] = molecular target: niacin-responsive repressor NiaR from Bacillus halodurans (Bacillus halodurans); assay: SEC-MALS; Superdex-200 10/300 GL, 20 mM Tris-HCl pH 8.0, 200 mM NaCl, 1 mM DTT; 10-12 mg/ml, 0.1 ml injected, 0.5 ml/min
[3] = molecular target: T2, BhNiaR (Bacillus halodurans, UniProt Q9KDJ7 1-179); assay: EMSA; 1 mM niacin; Zn2+-bound protein; EMSA: 20 mM Tris pH 8.0, 100 mM KCl, 1 mM MgCl2, 1 mM DTT, 5% glycerol, +/- 1 mM niacin; 80 nM DNA, 0-3 µM protein; 30 min at room temperature (Methods) or 277; conditions: protein: recombinant; tags: N-terminal His-tag removed with PreScission protease; chain copies: 2; label: none (SYBR Green stain); blunt
T2 sequence: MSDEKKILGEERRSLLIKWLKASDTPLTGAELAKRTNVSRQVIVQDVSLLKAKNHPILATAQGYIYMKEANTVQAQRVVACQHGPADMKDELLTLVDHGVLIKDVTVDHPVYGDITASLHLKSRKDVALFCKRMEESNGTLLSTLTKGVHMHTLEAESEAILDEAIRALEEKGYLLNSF

Molecule: O=C(O)c1cccnc1 [niacin]
X-ray crystal structure, co-crystallization, 1.8 Å [1]: A niacin molecule is bound to the C-terminal domain of BhNiaR near the metal-binding site.

stoichiometry N [2]: 2
Molecule: niacin-responsive repressor NiaR from Bacillus halodurans (natural protein)

B1: nifS-nadB promoter 34-bp cognate DNA (type I) (dsDNA)
DNA 1: CTCATTTACATATGTCTTGACATCTATATTTACA
DNA 2: TGTAAATATAGATGTCAAGACATATGTAAATGAG
Kd [3]: ~500 nM
